Assay results taken from patent publication US20070060518A1 (MANNKIND, published 2007).
Like-named read-outs stand apart in the source and are kept apart here. One block for each binder: values may come before it. Numbered stars: 1 amine (or outer) side, 2 acyl side, 3 side chain; on linkers, the order of the positions; unused ones are H or OH. Square brackets hold non-standard residues; d marks the D form. Ends that are not written are not given here. O‑methyltyrosine = COc1ccc(C[C@H](N[*:1])C(=O)[*:2])cc1; Phg = N[C@H](C(=O)O)c1ccccc1; Nle = CCCC[C@H](N)C(=O)O; Nva = CCC[C@H](N)C(=O)O

Legend:
[1] = target: T1, HLA-A*0201 class I monomer on avidin-coated plates (iTopia Epitope Discovery System) (human); experiment: iTopia off-rate assay
T1 construct: Bought kit (Beckman Coulter); also called A0201 restricted MHC Class 1 molecules; MHC monomer
Description: (§1) The plates were then incubated on the allele-specific monomer plates at 37° C. The plates were measured at multiple time points (0, 0.5, 1, 1.5, 2, 4, 6 and 8 hrs) for relative fluorescence intensity. The time required for 50% of the peptide to dissociate from the MHC monomer is defined as the T1/2 value (hrs).

[2] = target: T1, HLA-A*0201 class I monomer on …; experiment: iTopia affinity and off-rate assays (FIG. 28)
Description: (§2) Avidin-coated microtiter plates containing class I monomer loaded with a so-called placeholder peptide were used to evaluate peptide binding, affinity and off-rate. […] Assay buffers, anti-MHC-FITC mAb and beta2-microglobulin and control peptides were also supplied with the kits. Binding Assay:
as §1
(§3) In some cases, the reported values are the average of two determinations.

HLA-A*0201 on T2 cells [3] = target: T2, HLA-A*0201 on T2 cells (human); experiment: T2 cell stability assay, flow cytometry
T2 construct: whole, on cells; also called HLA-A2

HLA-A*0201 on T2 cells [4] = target: T2, HLA-A*0201 on T2 cells; experiment: T2 cell binding assay, flow cytometry
HLA-A*0201 on T2 cells [5] = target: T2, HLA-A*0201 on T2 cells; experiment: T2 cell binding assay, flow cytometry; remark: listed apart in the source
HLA-A*0201 on T2 cells [6] = target: T2, HLA-A*0201 on T2 cells; experiment: T2 cell stability assay, flow cytometry; remark: listed apart in the source
HLA-A*0201 on T2 cells [7] = target: T2, HLA-A*0201 on T2 cells; experiment: T2 cell binding assay, flow cytometry; remark: listed apart in the source
[8] = target: T1, HLA-A*0201 class I monomer on …; experiment: iTopia affinity assay (FIG. 26)
Excerpt: as §2, §3

[9] = target: T1, HLA-A*0201 class I monomer on …; experiment: iTopia binding and affinity assays (FIG. 26)
Excerpt: as §2
(§4) This assay measures the ability of individual peptides to bind HLA molecules under standardized optimal binding conditions. Monomer-coated plates were first stripped, releasing the placeholder peptide and leaving only the MHC heavy chain bound to the plate. Test peptides were then introduced under optimal folding conditions, along with the anti-MHC-FITC mAb. […] The anti-MHC-FITC mAb binds preferentially to a refolded MHC complex. Therefore, the fluorescence intensity resulting from each peptide was related to the peptide's ability to form complex with MHC molecule. Each peptide's binding was evaluated relative to the positive control peptide provided in the kit, and the results were expressed “% binding”.

[10] = target: T1, HLA-A*0201 class I monomer on …; experiment: iTopia binding assay (FIG. 26)
Excerpt: as §2, §4

[11] = target: T1, HLA-A*0201 class I monomer on …; experiment: iTopia assays (FIG. 21)
[12] = target: T1, HLA-A*0201 class I monomer on …; experiment: iTopia affinity and off-rate assays (FIG. 19)
Description: as §2, §1

[13] = target: T1, HLA-A*0201 class I monomer on …; experiment: iTopia assays (FIG. 20)

B1: Prame 425-433 (L426Nva, L433Nle) (peptide)
peptide: S[Nva]LQHLIG[Nle]
notes: also called S{Nva}LQHLIG{Nle}; L426Nva L433Nle analog
Half-Life (T1/2) [1]: 16.9 h

B2: PRAME425-433 S425T L426Nva L433Nle analog (peptide)
peptide: T[Nva]LQHLIG[Nle]
notes: also called T{Nva}LQHLIG{Nle}
binding result [2]: binds

B3: SSX2 41-49 (K41(O-methyl Tyr)) (peptide)
peptide: [O‑methyltyrosine]ASEKIFYV
Stability (T1/2) (HLA-A*0201 on T2 cells [3]): 20 h | EC50 (HLA-A*0201 on T2 cells [4]): 19.5 µM | Relative affinity (1/RA) (HLA-A*0201 on T2 cells [4]): 0.8

B4: SSX2 41-49 (A42I) (peptide)
peptide: KISEKIFYV
EC50 (HLA-A*0201 on T2 cells [5]): 8.8 µM | Relative affinity (1/RA) (HLA-A*0201 on T2 cells [5]): 1.7 | Stability (T1/2) (HLA-A*0201 on T2 cells [6]): 22.5 h

B7: SSX2 41-49 (A42V, V49I) (peptide)
peptide: KVSEKIFYI
Relative affinity (1/RA) (HLA-A*0201 on T2 cells [7]): 1.1

B12: PRAME425-433 analog with Thr at P1 (peptide)
peptide: TLLQHLIGL
binding result [9]: binds

B13: PRAME425-433 analog with Val at P2 (peptide)
peptide: SVLQHLIGL
binding result [10]: binds

B16: PRAME425-433 analog with Lys at P1 (peptide)
peptide: KLLQHLIGL
notes: also called Lys P1 analog
fold change of ED50 against the native peptide [8]: ~6 fold

B17: PRAME425-433 analog with Val at PΩ (peptide)
peptide: SLLQHLIGV
binding result [10]: binds

B18: NY-ESO-1 157-165 (L158Nva, C165V) (peptide)
peptide: S[Nva]LMWITQV
notes: also called SNvaLMWITQV
Half-Life (T1/2) [1]: 17 h

B21: Tyrosinase 369-377 (V377Nva) (peptide)
peptide: YMDGTMSQX
modifications: norvaline (Nva) at position 377 (P9)
Half-Life (T1/2) [1]: 14.7 h

B22: PSMA288-297 analog with Nva at PΩ (peptide)
peptide: GLPSIPVHPX
modifications: norvaline (Nva) at PΩ (P10)
notes: also called I297Nva
binding result [12]: binds

The next lines start with the values.

Relative affinity (1/RA) (HLA-A*0201 on T2 cells [7]): 1
B5: SSX2 41-49 (V49I) (peptide)
peptide: KASEKIFYI

Relative affinity (1/RA) (HLA-A*0201 on T2 cells [7]): 2.6
B6: SSX2 41-49 (A42L, V49I) (peptide)
peptide: KLSEKIFYI

EC50 (HLA-A*0201 on T2 cells [5]): 8.8 µM | Relative affinity (1/RA) (HLA-A*0201 on T2 cells [5]): 1.7 | Stability (T1/2) (HLA-A*0201 on T2 cells [6]): 22.5 h
B8: SSX2 41-49 (A42M) (peptide)
peptide: KMSEKIFYV

fold change of ED50 against the native peptide [8]: > 10 fold
B9: PRAME425-433 analog with Ala at PΩ (peptide)
peptide: SLLQHLIGA

binding result [9]: binds
B10: PRAME425-433 analog with Tyr at P1 (peptide)
peptide: YLLQHLIGL

binding result [9]: binds
B11: PRAME425-433 analog with Ile at P2 (peptide)
peptide: SILQHLIGL

binding result [9]: binds
B14: PRAME425-433 analog with Met at P2 (peptide)
peptide: SMLQHLIGL

binding result [10]: binds
B15: PRAME425-433 analog with Ile at PΩ (peptide)
peptide: SLLQHLIGI

Half-Life (T1/2) [1]: 14.4 h
B19: Tyrosinase 369-377 (peptide)
peptide: YMDGTMSQV

binding result [11]: binds
B20: PSMA288-297 Nva/W/V analog (Nva at P2, Trp at P3, Val at PΩ) (peptide)
peptide: G[Nva]WSIPVHPV

binding result [13]: binds
B23: PSMA288-297 analog with Trp at P3 and Nva at PΩ (peptide)
peptide: GLWSIPVHP[Nva]

Stability (T1/2) (HLA-A*0201 on T2 cells [3]): > 24 h | EC50 (HLA-A*0201 on T2 cells [4]): 5.83 µM | Relative affinity (1/RA) (HLA-A*0201 on T2 cells [4]): 2.5
B24: SSX2 41-49 (K41(Phg)) (peptide)
peptide: [Phg]ASEKIFYV

binding result [12]: binds
B25: PSMA288-297 analog with Met at P2 (peptide)
peptide: GMPSIPVHPI

binding result [13]: binds
B26: PSMA288-297 analog with Trp at P3 and Val at PΩ (peptide)
peptide: GLWSIPVHPV
